According to US20210393776A1 (FABION PHARMACEUTICALS, published 2021):
Like-named read-outs stand apart in the source and are kept apart here.

T1: full length human EpCAM on CHO cells (human, UniProt P16422 24-314)
T1 construct: CHO cells stably expressing full length human EpCAM; also called hu-EpCAM-FL; human EpCAM-FL
T1 sequence: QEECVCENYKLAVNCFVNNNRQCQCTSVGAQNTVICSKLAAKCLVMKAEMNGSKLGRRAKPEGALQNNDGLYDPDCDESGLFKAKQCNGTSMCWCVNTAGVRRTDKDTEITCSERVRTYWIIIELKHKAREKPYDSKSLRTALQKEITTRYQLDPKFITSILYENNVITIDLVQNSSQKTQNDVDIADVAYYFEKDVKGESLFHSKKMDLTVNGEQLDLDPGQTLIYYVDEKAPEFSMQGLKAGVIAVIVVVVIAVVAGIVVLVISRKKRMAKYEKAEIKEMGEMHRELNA


Key:
[1] = target: T2, human CD3 on cells (Jurkat cells; T cells in human PBMCs) (human, UniProt P07766 23-207); assay: flow cytometry on Jurkat cells, biotinylated protein, streptavidin-PE
T2 construct: whole, on cells; the other chains of the complex are present on the cells; also called CD3 on Jurkat cells; CD3 on T cells in PBMC preparation

[2] = target: T3, recombinant cyno CD3epsilon/delta Fc(K-H) heterodimer (cynomolgus); assay: ELISA, immobilised antigen, biotinylated protein, streptavidin-HRP, ABTS, OD405
T3 construct: also called cynomolgus CD3epsilon/delta; recombinant cyno CD3epsilon/delta heterodimeric Fc protein; copies: 1 + 1

[3] = target: T4, human CD3epsilonAA1-27.Fc (human); assay: as above
T4 construct: also called recombinant human CD3epsilon N-terminal peptide (aa1-27.Fc fusion); CD3epsilon N-terminal amino acid 1-27 peptide Fc fusion

[4] = target: T1, full length human EpCAM on CHO cells; assay: flow cytometry on CHO cells stably expressing full length human EpCAM, PE detection
[5] = target: T3, recombinant cyno CD3epsilon/delta …; assay: ELISA, immobilised antigen, biotinylated protein, streptavidin-HRP, ABTS, OD405; remark: listed apart in the source
[6] = target: T4, human CD3epsilonAA1-27.Fc; assay: as above; remark: listed apart in the source
[7] = target: T1, full length human EpCAM on CHO cells; assay: flow cytometry on CHO cells stably expressing full length human EpCAM, PE detection; remark: listed apart in the source

Binder | binding result [1] | binding result [2] | binding result [3] | binding result [4] | binding result [5] | EC50 (read off the curve) [6] [nM] | binding result [7]
anti EpCAM scFv fusion to the LC alone of OKT3 Fab (bispecific antibody, also called EpCAM1.1×OKT3 Fab fusion, LC only) heavy: not shown light: QVQLQQSGGGLVQPGGSLRLSCAASGFTFSNYWMSWVRQAPGKGLEWVANIKQDGSEKFYVDSVKGRFTISRDNAKNSLYLQMNSLRAEDMAVYYCARVGGAWELGYWGQGTLVTVSAGGGGSGGGGSGGGGSGAQSVLTQPPSVSGAPGQRVTISCTGSSSNIGSYYGVHWYQQIPGTAPKLLIYSDTNRPSGVPDRFSGSKSGTSASLAITGLQAEDEADYYCQSYDSSLSGRVFGGGTKVTVLGRAQIVLTQSPAIMSASPGEKVTMTCSASSSVSYMNWYQQKSGTSPKRWIYDTSKLASGVPAHFRGSGSGTSYSLTISGMEAEDAATYYCQQWSSNPFTFGSGTKLEINRTVAAPSVFIFPPSDEQLKSGTASVVCLLNNFYPREAKVQWKVDNALQSGNSQESVTEQDSKDSTYSLSSTLTLSKADYEKHKVYACEVTHQGLSSPVTKSFNRGEC | no binding | no binding (tested: about 80 nM (last point; axis to 100 nM)) | no binding (tested: about 80 nM (last point; axis to 100 nM)) | binds |  |  | 
anti EpCAM scFv fusion to both HC and LC of OKT3 Fab (bispecific antibody, also called EpCAM1.1×OKT3 Fab fusion, HC and LC) heavy: not shown light: QVQLQQSGGGLVQPGGSLRLSCAASGFTFSNYWMSWVRQAPGKGLEWVANIKQDGSEKFYVDSVKGRFTISRDNAKNSLYLQMNSLRAEDMAVYYCARVGGAWELGYWGQGTLVTVSAGGGGSGGGGSGGGGSGAQSVLTQPPSVSGAPGQRVTISCTGSSSNIGSYYGVHWYQQIPGTAPKLLIYSDTNRPSGVPDRFSGSKSGTSASLAITGLQAEDEADYYCQSYDSSLSGRVFGGGTKVTVLGRAQIVLTQSPAIMSASPGEKVTMTCSASSSVSYMNWYQQKSGTSPKRWIYDTSKLASGVPAHFRGSGSGTSYSLTISGMEAEDAATYYCQQWSSNPFTFGSGTKLEINRTVAAPSVFIFPPSDEQLKSGTASVVCLLNNFYPREAKVQWKVDNALQSGNSQESVTEQDSKDSTYSLSSTLTLSKADYEKHKVYACEVTHQGLSSPVTKSFNRGEC | no binding | no binding (tested: about 80 nM (last point; axis to 100 nM)) | no binding (tested: about 80 nM (last point; axis to 100 nM)) | binds |  |  | 
EpCAM2.2-(L)-hu-1F3.1 Fab (bispecific antibody, member of groups m21 and m31; also called EpCAM2.2-(L)-hu-1F3 Fab) heavy chain Fd (VH-CH1), unfused: EVQLVESGGGLVQPGGSLRLSCAASGFTFSTYAMNWVRQAPGKGLEWVSRIRSKYNNYATYYADSVKDRFTISRDDSKNTLYLQMNSLRAEDTAVYYCARHGNFGNSYVSWFAYWGQGTMVTVSSASTKGPSVFPLAPCSRSTSESTAALGCLVKDYFPEPVTVSWNSGALTSGVHTFPAVLQSSGLYSLSSVVTVPSSNFGTQTYTCNVDHKPSNTKVDKTVGGGGSHHHHHHH light chain with anti-EpCAM scFv EpCAM2.2 at the N-terminus: QVQLQESGPGLVKPSETLTLTCSVSGGSISGYYWSWIRQPPGMGLEWIGSVHHSGSTSYNPSLKSRVTISVDTSKNQFSLKLNSVTAADTAVYYCARYRGSGLDYWGQGTLVTVSSGGGGSGGGGSGGGGSQSVLTQPPSVSAAPGQKVTISCSGDSSNIGKNYVSWYQQLPGTAPKLLIYENNERPSGVPDRFSGSKSGTSATLGITGLQTGDEADYYCAAWDTSLSARVFGGGTKVTVLGRAQAVVTQEPSLTVSPGGTVTLTCRSSTGAVTTSNYANWVQQKPGQAPRGLIGGTNKRAPGTPARFSGSLLGGKAALTLSGVQPEDEAEYYCALWYSNLWVFGGGTKLTVLGQPKAAPSVTLFPPSSEELQANKATLVCLISDFYPGAVTVAWKADSSPVKAGVETTTPSKQSNNKYAASSYLSLTPEQWKSHRSYSCQVTHEGSTVEKTVAPTECS |  |  |  |  | binds | ~2 | binds
